One block for each substance: values may come before it.
Experiments:
[1] = biological target: human CXC Chemokine Receptor-4 (CXCR4) (human) (UniProt P61073); assay: cell-based or functional assay
[2] = biological target: LMEC-derived CXCL12 (endogenous CXCL12 of human lung microvascular endothelial cells) (human) (UniProt P48061); assay: cell-based or functional assay
LMEC-derived CXCL12 (endogenous CXCL12 of human lung microvascular endothelial cells) (human), sequence (P48061 22-93 limits assumed): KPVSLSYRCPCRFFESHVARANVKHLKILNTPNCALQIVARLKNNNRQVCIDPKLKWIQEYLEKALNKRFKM

human CXC Chemokine Receptor-4 (CXCR4) (human), sequence (P61073 whole entry): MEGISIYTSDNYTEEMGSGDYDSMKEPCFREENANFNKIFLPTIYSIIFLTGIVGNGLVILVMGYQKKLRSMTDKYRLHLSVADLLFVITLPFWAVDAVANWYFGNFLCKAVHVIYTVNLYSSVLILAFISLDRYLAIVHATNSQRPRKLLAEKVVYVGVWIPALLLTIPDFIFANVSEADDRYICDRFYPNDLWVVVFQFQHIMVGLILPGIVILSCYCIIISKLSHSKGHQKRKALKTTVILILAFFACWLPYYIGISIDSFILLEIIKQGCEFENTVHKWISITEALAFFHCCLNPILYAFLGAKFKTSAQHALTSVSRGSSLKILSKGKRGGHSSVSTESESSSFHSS
recombinant CXCL12 (SDF-1) (ligand), sequence (P48061 22-93): as the sequence (P48061 22-93 limits assumed) above
CCL19 (control chemokine) (ligand), sequence (Q99731 22-98): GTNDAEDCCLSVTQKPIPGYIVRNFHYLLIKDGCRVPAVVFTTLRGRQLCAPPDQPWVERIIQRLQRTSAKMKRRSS

Substance: CCL19 (control chemokine) (ligand)
- adhesion of CXCR4-B16 cells to chemokine-treated DMEC (adherent cells, parallel plate flow chamber) [1]: 6.8
- arrest of CXCR4-B16 cells on plates co-coated with VCAM-1/Ig and CCL19 at 1.5 dynes/cm^2 (Mean adherent cells/field) [1]: 17.2

Substance: Mouse anti-human CXCR4 mAb (clone 44716.111, R&D Systems) (antibody)
- arrest on TNF-α-stimulated LMEC of CXCR4-B16 cells pretreated with anti-CXCR4 mAb (10 µg/ml) (Mean adherent cells/field) [1]: 7.5

Substance: anti-human CXCL12 mAb (clone 77014.111, R&D Systems) (antibody)
- arrest of CXCR4-B16 cells on LMEC pretreated with anti-CXCL12 mAb (100 µg/ml) (Mean adherent cells/field) [2]: 41.2

Now from value to substance:

- arrest of CXCR4-B16 against pLNCX2-B16 cells on LMEC, no exogenous CXCL12 [1]: 3 times
- arrest of CXCR4-B16 cells on TNFα-treated LMEC under flow, no exogenous CXCL12 (Mean adherent cells/field) [1]: 102
Substance: LMEC-derived CXCL12 (endogenous CXCL12 of human lung microvascular endothelial cells) (from UniProt P48061 22-93) (ligand)

- adhesion of CXCR4-B16 cells to CXCL12-treated DMEC (adherent cells, parallel plate flow chamber) [1]: 85.2
- adhesion of CXCR4-B16 cells to CXCL12-treated LMEC (adherent cells) [1]: 321
- arrest of CXCR4-B16 cells on TNFα-treated LMEC under flow, with exogenous CXCL12 (Mean adherent cells/field) [1]: 170
- arrest of CXCR4-B16 cells on plates co-coated with VCAM-1/Ig and CXCL12 at 1.5 dynes/cm^2 (Mean adherent cells/field) [1]: 87.2
- growth of CXCR4-B16 cells in low serum, cell count at 24 h [1]: 19.3
- growth of CXCR4-B16 cells in low serum, cell count at 48 h [1]: 35.3
Substance: recombinant CXCL12 (SDF-1) (ligand)

Reference: US20040132642A1, “Methods of inhibiting metastasis or growth of a tumor cell” (Government of the U.S.A., represented by the Secretary, …, priority 2002, published 2004)
